From article PMC11653614
“And” between values parts separate entries of the source, which are not always exact repeats. Identical values can stand only once.

Molecular target: Pyruvate kinase M2 (mouse (endogenous in mouse skin)) (UniProt P52480)
Test: not stated; detection of dimeric and tetrameric PKM2 protein levels in the skin from sham and skin flap mice on postoperative day 7

Pyruvate kinase M2, P52480 1-531 (enzyme; other documents disagree on this pair), sequence (P52480 whole entry): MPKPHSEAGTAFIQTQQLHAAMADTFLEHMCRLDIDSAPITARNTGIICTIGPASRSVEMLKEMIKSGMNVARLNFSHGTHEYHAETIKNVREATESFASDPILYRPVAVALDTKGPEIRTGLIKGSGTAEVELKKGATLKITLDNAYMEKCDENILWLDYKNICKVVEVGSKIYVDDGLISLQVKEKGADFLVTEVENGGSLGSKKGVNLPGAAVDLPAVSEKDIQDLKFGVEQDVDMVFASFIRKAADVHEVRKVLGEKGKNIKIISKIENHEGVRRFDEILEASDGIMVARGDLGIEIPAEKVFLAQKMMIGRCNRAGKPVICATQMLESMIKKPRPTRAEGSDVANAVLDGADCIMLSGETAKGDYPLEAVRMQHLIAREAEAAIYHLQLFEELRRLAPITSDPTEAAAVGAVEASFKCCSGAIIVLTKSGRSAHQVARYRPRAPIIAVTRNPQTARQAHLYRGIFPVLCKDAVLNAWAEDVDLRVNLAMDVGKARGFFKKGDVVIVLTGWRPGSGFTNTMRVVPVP

- stoichiometry N: 4 and 2
Substance: Pyruvate kinase M2, P52480 1-531 (enzyme; other documents disagree on this pair)
